# Reference: patent US20110195090A1
# pEC50: −log10 of the molar value.
# Columns and labels:
# [1] = molecular target: Bal gp120 (HIV-1 isolate Bal); experiment: ELISA, bal gp120 coated, scFv-Fc
# [2] = molecular target: Bal gp120 (HIV-1 isolate Bal); experiment: ELISA, bal gp120 coated, scFv
Substance,pEC50 [1],pEC50 [2]
b12 A52P/G53Y scFv-Fc (Fc fusion),7.53,–
b12 G53Y scFv-Fc (Fc fusion),< 6.00,–
mature b12 scFv-Fc (Fc fusion),9.40,–
mature scFv b12,–,8.89
scFv b12 germline mutant A52P/G53Y,–,7.06
scFv b12 germline mutant G53Y,–,< 6.00
